{"source": "paper PMC10989685", "about": "(2024)", "binders": {"B1": {"name": "IgSF21 (protein)", "chain": "YLTVNIEPLPPVVAGDAVTLKCNFKTDGRMREIVWYRVTDGGTIKQKIFTFDAMFSTNYSHMENYRKREDLVYQSTVRLPEVRISDNGPYECHVGIYDRATREKVVLASGNIFLNVMAPPTSIEVVAADSPAPFSRYQAQNFTLVCIVSGGKPAPMVYFKRDGEPIDAVPLTELPAASSGPVQDSRPFRSLLHRDVDDTKMQKSLSLLDTEYRAGRPYTERPARSLTQDPSLFVQPTTENIPETVVSREFPRWVHSAEPVYFLRHSRTPGSDGTVEVRALLTWTLNPQIDNEALFSCEVKHPALSMPMQAEVTLVAPKGPKIMMTPSRARVGDTVRILVHGFQNEVFPEPMFTWTRVGSRLLDGSAEFDGKELVLERVPAELNGSMYRCTAQNPLGSTDTHTRLIVFENPNIPRGTEDSRGSASGPAGVRLTLVLALTVILELT"}, "B2": {"name": "Recombinant human Fc-tagged NRXN2α (human Nrxn2α-Fc, R&D Systems #6636-NX) (Fc fusion)", "chain": "not shown"}}, "key": {"[1]": {"biological_target": "Neurexin2α (UniProt E9Q7X7)", "sequence (E9Q7X7 29-1634)": "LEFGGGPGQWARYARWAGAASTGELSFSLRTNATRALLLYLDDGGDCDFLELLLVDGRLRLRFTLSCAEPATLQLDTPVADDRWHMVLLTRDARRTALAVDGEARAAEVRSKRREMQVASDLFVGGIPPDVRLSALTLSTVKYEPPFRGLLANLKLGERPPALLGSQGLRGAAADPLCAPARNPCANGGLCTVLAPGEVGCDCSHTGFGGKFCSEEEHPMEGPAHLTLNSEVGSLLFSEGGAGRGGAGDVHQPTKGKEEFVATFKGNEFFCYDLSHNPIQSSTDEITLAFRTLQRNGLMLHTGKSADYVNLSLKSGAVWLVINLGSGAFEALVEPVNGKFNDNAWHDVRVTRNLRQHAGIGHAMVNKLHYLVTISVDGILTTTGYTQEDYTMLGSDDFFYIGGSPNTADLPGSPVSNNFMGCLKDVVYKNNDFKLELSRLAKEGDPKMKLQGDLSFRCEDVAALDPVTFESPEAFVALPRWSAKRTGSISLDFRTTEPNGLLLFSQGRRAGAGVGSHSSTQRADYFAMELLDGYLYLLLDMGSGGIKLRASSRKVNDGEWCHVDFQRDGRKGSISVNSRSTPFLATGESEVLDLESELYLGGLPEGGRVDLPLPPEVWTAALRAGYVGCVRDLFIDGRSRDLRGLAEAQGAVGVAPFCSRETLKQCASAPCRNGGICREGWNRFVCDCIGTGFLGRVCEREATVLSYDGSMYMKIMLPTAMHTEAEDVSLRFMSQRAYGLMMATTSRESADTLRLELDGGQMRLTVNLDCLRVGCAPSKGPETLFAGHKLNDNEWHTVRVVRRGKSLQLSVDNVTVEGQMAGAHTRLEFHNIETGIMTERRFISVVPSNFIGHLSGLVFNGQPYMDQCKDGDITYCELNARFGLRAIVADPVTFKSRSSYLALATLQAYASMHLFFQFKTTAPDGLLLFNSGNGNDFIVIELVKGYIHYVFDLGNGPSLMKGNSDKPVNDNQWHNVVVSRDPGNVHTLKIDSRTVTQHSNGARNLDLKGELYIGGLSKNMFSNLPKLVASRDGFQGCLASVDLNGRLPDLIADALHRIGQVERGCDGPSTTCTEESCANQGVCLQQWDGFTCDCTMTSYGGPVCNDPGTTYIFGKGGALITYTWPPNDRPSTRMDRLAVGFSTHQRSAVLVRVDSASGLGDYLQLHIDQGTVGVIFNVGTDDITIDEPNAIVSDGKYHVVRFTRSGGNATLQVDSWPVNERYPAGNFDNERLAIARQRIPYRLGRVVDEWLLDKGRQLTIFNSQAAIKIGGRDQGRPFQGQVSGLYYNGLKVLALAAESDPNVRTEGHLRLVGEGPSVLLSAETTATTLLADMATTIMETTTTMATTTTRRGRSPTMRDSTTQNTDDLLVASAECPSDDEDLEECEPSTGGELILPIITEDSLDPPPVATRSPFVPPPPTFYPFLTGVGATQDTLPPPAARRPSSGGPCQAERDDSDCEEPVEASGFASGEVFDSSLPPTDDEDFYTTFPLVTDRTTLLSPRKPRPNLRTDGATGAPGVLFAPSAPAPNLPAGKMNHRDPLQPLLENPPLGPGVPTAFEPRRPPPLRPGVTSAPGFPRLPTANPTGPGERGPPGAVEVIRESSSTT", "assay": "SPR"}, "[2]": {"biological_target": "Recombinant human His-tagged IgSF21 protein (R&D Systems #10330-S2) (human, UniProt Q96ID5 25-444)", "assay": "SPR"}}}
{"binder": "B1", "values": [{"measurement": "Kd", "setting": "[1]", "result": 5.67, "unit": "nM"}]}
{"binder": "B2", "values": [{"measurement": "koff", "setting": "[2]", "result": 0.00101, "unit": "s⁻¹"}]}
